# Values joined by “and” are separate entries in the source; they are usually repeats but may differ in a detail not shown here. Equal entries are not always repeated. Where two headings read alike, the source gives them in different places. No end group written: not given here. *: point of attachment. AMC = Cc1cc(=O)oc2cc(N*)ccc12
# How the values were obtained:
# [1] = target: T1, BsAcuC (2c) (Bacillus subtilis, UniProt P39067); assay: Substrate screening assay (acyl-peptide-AMC); type: biochemical; details: for RFU means, BsAcuC (2c) / RFU*2 means, BsAcuC (2c): means of two measurements; for [AMC] (nM), BsAcuC (2c), means: substrate screening, mean of two measurements
# T1 construct: made in house; host or cells: E. coli BL21 (DE3)
# T1 sequence (P39067 1-387): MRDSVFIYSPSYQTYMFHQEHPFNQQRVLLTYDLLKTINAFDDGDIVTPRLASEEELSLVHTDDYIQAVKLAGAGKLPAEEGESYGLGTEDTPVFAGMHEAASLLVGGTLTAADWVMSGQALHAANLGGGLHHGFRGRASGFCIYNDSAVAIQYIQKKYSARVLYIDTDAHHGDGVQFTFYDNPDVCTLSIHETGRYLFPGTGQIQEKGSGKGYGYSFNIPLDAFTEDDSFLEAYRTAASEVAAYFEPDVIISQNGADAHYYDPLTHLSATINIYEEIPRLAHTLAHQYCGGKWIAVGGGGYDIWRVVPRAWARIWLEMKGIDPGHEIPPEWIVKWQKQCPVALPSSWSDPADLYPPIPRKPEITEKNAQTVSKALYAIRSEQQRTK
# Experimental: (§1) Experiments with SIRT2 and SIRT5 were supplemented with NAD^+ (500 µM). Thereafter, a solution of trypsin (25 µL, 5.0 mg/mL; final concentration of 2.5 mg/mL) was added, and the development of the assay was allowed to proceed for 90 min at room temperature before fluorescence analysis. […] To this end, a single category is given to all conversions >48% on the heatmap. […] For the H4-derived peptide LGKbio no positive control was available.
# [2] = tested on: Controls; type: biochemical
# [3] = tested on: RsPrpH (1b); assay: Substrate screening assay (acyl-peptide-AMC); type: biochemical, Rhizorhabdus sp.; details: for RFU means, RsPrpH (1b) / RFU*2 means, RsPrpH (1b): means of two measurements; for [AMC] (nM), RsPrpH (1b), means / [AMC] (nM), RsPrpH (1b): substrate screening; for [AMC] (nM), RsPrpH (1b), means: mean of two measurements
# [4] = tested on: Controls; type: biochemical; remark: listed apart in the source
# [5] = target: PsApaH (4) (Pseudomonas sp. M30-35, UniProt A0A1Y0KY79); type: biochemical; details: for RFU means, PsApaH (4) / RFU*2 means, PsApaH (4): means of two measurements; for [AMC] (nM), PsApaH (4), means / [AMC] (nM), PsApaH (4): substrate screening; for [AMC] (nM), PsApaH (4), means: mean of two measurements
# Experimental: as §1
# [6] = target: LpApaH (3) (Legionella pneumophila, UniProt A0A2S6EWV0); type: biochemical
# [7] = tested on: VcHdaH (5b); type: biochemical, Vibrio cholerae; details: for RFU means, VcHdaH (5b) / RFU*2 means, VcHdaH (5b): means of two measurements; for [AMC] (nM), VcHdaH (5b), means: substrate screening, mean of two measurements
# [8] = target: RwDmhA (1b) (Rhizorhabdus wittichii, UniProt A0A067XIQ6); type: biochemical; details: for RFU means, RwDmhA (1b) / RFU*2 means, RwDmhA (1b): means of two measurements; for [AMC] (nM), RwDmhA (1b), means / [AMC] (nM), RwDmhA (1b): substrate screening; for [AMC] (nM), RwDmhA (1b), means: mean of two measurements
# [9] = target: KpHdaH (1b) (Klebsiella pneumoniae, UniProt A0A377Z5F6); type: biochemical; details: for RFU means, KpHdaH (1b) / RFU*2 means, KpHdaH (1b): means of two measurements; for [AMC] (nM), KpHdaH (1b), means / [AMC] (nM), KpHdaH (1b): substrate screening; for [AMC] (nM), KpHdaH (1b), means: mean of two measurements; for RFU*2, KpHdaH (1b) / RFU, KpHdaH (1b): two measurements, single values
# [10] = target: LcApaH (3) (Legionella cherrii, UniProt A0A0W0SGS1); type: biochemical
# [11] = tested on: VsHdaH (1b); type: biochemical, Vibrio sp.; details: for RFU means, VsHdaH (1b) / RFU*2 means, VsHdaH (1b): means of two measurements; for [AMC] (nM), VsHdaH (1b), means / [AMC] (nM), VsHdaH (1b): substrate screening; for [AMC] (nM), VsHdaH (1b), means: mean of two measurements
# [12] = two measurements, single values
substance,measurement,setting,value
"QPKKdec (QPKK-{AMC}; not fully specified (residue 4); printed as QPKKdec; also: decanoyl-lysine (which Lys not given here); UniProt P04637 317-320, looked up, fragment)","RFU means, BsAcuC (2c)",[1],1377 RFU
same,"RFU*2 means, BsAcuC (2c)",[1],2754 RFU*2
same,"[AMC] (nM), BsAcuC (2c), means",[1],1344.73 nM
same,"RFU*2, BsAcuC (2c)",[1]; [12],3196 RFU*2 and 2312 RFU*2
same,"[AMC] (nM), controls, means",[2],15830.57 nM
same,"RFU means, RsPrpH (1b)",[3],37.5 RFU
same,"RFU*2 means, RsPrpH (1b)",[3],75 RFU*2
same,"[AMC] (nM), RsPrpH (1b), means",[3],36.62 nM
same,"[AMC] (nM), RsPrpH (1b)",[3]; measurement 1 of two,31.25 nM
same,"[AMC] (nM), RsPrpH (1b)",[3]; measurement 2 of two,41.99 nM
same,"RFU*2, RsPrpH (1b)",[3]; [12],64 RFU*2 and 86 RFU*2
same,"RFU, RsPrpH (1b)",[3]; [12],32 RFU and 43 RFU
same,"RFU means, controls",[4],16210.5 RFU
same,"RFU*2, controls",[4],29980 RFU*2 and 34862 RFU*2
same,"RFU*2 means, controls",[4],32421 RFU*2
same,"RFU, controls",[4],14990 RFU and 17431 RFU
same,"RFU means, PsApaH (4)",[5],97 RFU
same,"RFU*2 means, PsApaH (4)",[5],194 RFU*2
same,"[AMC] (nM), PsApaH (4), means",[5],94.73 nM
same,"[AMC] (nM), PsApaH (4)",[5]; measurement 1 of two,91.80 nM
same,"[AMC] (nM), PsApaH (4)",[5]; measurement 2 of two,97.66 nM
same,"RFU*2, PsApaH (4)",[5]; [12],200 RFU*2 and 188 RFU*2
same,"RFU, PsApaH (4)",[5]; [12],100 RFU and 94 RFU
same,"RFU means, LpApaH (3)",[6],175 RFU
same,"RFU*2, LpApaH (3)",[6],316 RFU*2 and 384 RFU*2
same,"RFU*2 means, LpApaH (3)",[6],350 RFU*2
same,"RFU, LpApaH (3)",[6],158 RFU and 192 RFU
same,"[AMC] (nM), LpApaH (3)",[6],154.30 nM and 187.50 nM
same,"[AMC] (nM), LpApaH (3), means",[6],170.90 nM
same,"RFU means, VcHdaH (5b)",[7],53.5 RFU
same,"RFU*2 means, VcHdaH (5b)",[7],107 RFU*2
same,"[AMC] (nM), VcHdaH (5b), means",[7],52.25 nM
same,"RFU means, RwDmhA (1b)",[8],33 RFU
same,"RFU*2 means, RwDmhA (1b)",[8],66 RFU*2
same,"[AMC] (nM), RwDmhA (1b), means",[8],32.23 nM
same,"[AMC] (nM), RwDmhA (1b)",[8]; measurement 1 of two,18.55 nM
same,"[AMC] (nM), RwDmhA (1b)",[8]; measurement 2 of two,45.90 nM
same,"RFU means, KpHdaH (1b)",[9],58 RFU
same,"RFU*2 means, KpHdaH (1b)",[9],116 RFU*2
same,"[AMC] (nM), KpHdaH (1b), means",[9],56.64 nM
same,"[AMC] (nM), KpHdaH (1b)",[9]; measurement 1 of two,48.83 nM
same,"[AMC] (nM), KpHdaH (1b)",[9]; measurement 2 of two,64.45 nM
same,"RFU*2, KpHdaH (1b)",[9],100 RFU*2 and 132 RFU*2
same,"RFU, KpHdaH (1b)",[9],50 RFU and 66 RFU
same,"RFU means, LcApaH (3)",[10],167 RFU
same,"RFU*2, LcApaH (3)",[10],294 RFU*2 and 374 RFU*2
same,"RFU*2 means, LcApaH (3)",[10],334 RFU*2
same,"RFU, LcApaH (3)",[10],147 RFU and 187 RFU
same,"[AMC] (nM), LcApaH (3)",[10],143.55 nM and 182.62 nM
same,"[AMC] (nM), LcApaH (3), means",[10],163.09 nM
same,"RFU means, VsHdaH (1b)",[11],82 RFU
same,"RFU*2 means, VsHdaH (1b)",[11],164 RFU*2
same,"[AMC] (nM), VsHdaH (1b), means",[11],80.08 nM
same,"[AMC] (nM), VsHdaH (1b)",[11]; measurement 1 of two,61.52 nM
same,"[AMC] (nM), VsHdaH (1b)",[11]; measurement 2 of two,98.63 nM
same,"RFU*2, VsHdaH (1b)",[11]; [12],126 RFU*2 and 202 RFU*2
same,"RFU, VsHdaH (1b)",[11]; [12],63 RFU and 101 RFU
"QPKKmyr (QPKK-{AMC}; not fully specified (residue 4); printed as QPKKmyr; also: myristoyl-lysine (which Lys not given here); UniProt P04637 317-320, looked up, fragment)","RFU means, BsAcuC (2c)",[1],540 RFU
same,"RFU*2 means, BsAcuC (2c)",[1],1080 RFU*2
same,"[AMC] (nM), BsAcuC (2c), means",[1],527.34 nM
same,"[AMC] (nM), controls, means",[2],6615.23 nM
same,"RFU means, RsPrpH (1b)",[3],-466 RFU
same,"RFU*2 means, RsPrpH (1b)",[3],-932 RFU*2
same,"[AMC] (nM), RsPrpH (1b), means",[3],-455.08 nM
same,"[AMC] (nM), RsPrpH (1b)",[3]; measurement 1 of two,-105.47 nM
same,"[AMC] (nM), RsPrpH (1b)",[3]; measurement 2 of two,-804.69 nM
same,"RFU means, controls",[4],6774 RFU
same,"RFU*2, controls",[4],12310 RFU*2 and 14786 RFU*2
same,"RFU*2 means, controls",[4],13548 RFU*2
same,"RFU, controls",[4],6155 RFU and 7393 RFU
same,"RFU means, PsApaH (4)",[5],76.5 RFU
same,"RFU*2 means, PsApaH (4)",[5],153 RFU*2
same,"[AMC] (nM), PsApaH (4), means",[5],74.71 nM
same,"[AMC] (nM), PsApaH (4)",[5]; measurement 1 of two,39.06 nM
same,"[AMC] (nM), PsApaH (4)",[5]; measurement 2 of two,110.35 nM
same,"RFU means, LpApaH (3)",[6],459 RFU
same,"RFU*2, LpApaH (3)",[6],820 RFU*2 and 1016 RFU*2
same,"RFU*2 means, LpApaH (3)",[6],918 RFU*2
same,"RFU, LpApaH (3)",[6],410 RFU and 508 RFU
same,"[AMC] (nM), LpApaH (3)",[6],400.39 nM and 496.09 nM
same,"[AMC] (nM), LpApaH (3), means",[6],448.24 nM
same,"RFU means, VcHdaH (5b)",[7],-187.5 RFU
same,"RFU*2 means, VcHdaH (5b)",[7],-375 RFU*2
same,"[AMC] (nM), VcHdaH (5b), means",[7],-183.11 nM
same,"RFU means, RwDmhA (1b)",[8],-605.5 RFU
same,"RFU*2 means, RwDmhA (1b)",[8],-1211 RFU*2
same,"[AMC] (nM), RwDmhA (1b), means",[8],-591.31 nM
same,"[AMC] (nM), RwDmhA (1b)",[8]; measurement 1 of two,-337.89 nM
same,"[AMC] (nM), RwDmhA (1b)",[8]; measurement 2 of two,-844.73 nM
same,"RFU means, KpHdaH (1b)",[9],147 RFU
same,"RFU*2 means, KpHdaH (1b)",[9],294 RFU*2
same,"[AMC] (nM), KpHdaH (1b), means",[9],143.55 nM
same,"[AMC] (nM), KpHdaH (1b)",[9]; measurement 1 of two,173.83 nM
same,"[AMC] (nM), KpHdaH (1b)",[9]; measurement 2 of two,113.28 nM
same,"RFU*2, KpHdaH (1b)",[9],356 RFU*2 and 232 RFU*2
same,"RFU, KpHdaH (1b)",[9],178 RFU and 116 RFU
same,"RFU means, LcApaH (3)",[10],256.5 RFU
same,"RFU*2 means, LcApaH (3)",[10],513 RFU*2
same,"[AMC] (nM), LcApaH (3), means",[10],250.49 nM
same,"RFU means, VsHdaH (1b)",[11],-206 RFU
same,"RFU*2 means, VsHdaH (1b)",[11],-412 RFU*2
same,"[AMC] (nM), VsHdaH (1b), means",[11],-201.17 nM
same,"[AMC] (nM), VsHdaH (1b)",[11]; measurement 1 of two,172.85 nM
same,"[AMC] (nM), VsHdaH (1b)",[11]; measurement 2 of two,-575.20 nM
